Assays:
[1] = target: histone H1
[2] = target: myelin basic protein

B1: Hunk (Hormonally Up-regulated, Neu-Tumor-Associated Kinase), mouse, 714-amino-acid ~80-kDa polypeptide (protein)
chain: MPAAAGDGLLGEPAAPGGDGGAEDTTRPAAACEGSFLPAWVSGVSRERLRDFQHHKRVGNYLIGSRKLGEGSFAKVREGLHVLTGEKVAIKVIDKKRAKKDTYVTKNLRREGQIQQMIRHPNITQLLDILETENSYYLVMELCPGGNLMHKIYEKKRLDEAEARRYIRQLISAVEHLHRAGVVHRDLKIENLLLDEDNNIKLIDFGLSNCAGILGYSDPFSTQCGSPAYAAPELLARKKYGPKIDVWSIGVNMYAMLTGTLPFTVEPFSLRALYQKMVDKAMNPLPTQLSTGAVNFLRSLLEPDPVKRPNIQQALANRWLNENYTGKVPCNVTYPNRISLEDLSPSVVLHMTEKLGYKNSDVINTVLSNRACHILAIYFLLNKKLERYLSGKSDIQDSICYKTQLYQIEKCRATKEPYEASLDTWTRDFEFHAVQDKKPKEQEKRGDFLHRPFSKKLDKNLPSHKQPSPSLITQLQSTKALLKDRKASKSGFPDKDSFVCRNLFRKTSDSNCVASSSMEFIPVPPPRTPRIVKKLEPHQPGPGSASILPKEEPLLLDMVRSFESVDREDHIELLSPSHHYRILSSPVSLARRNSSERTLSQGLLSGSTSPLQTPLHSTLVSFAHEEKNSPPKEEGVCSPPPVPSNGLLQPLGSPNCVKSRGRFPMMGIGQMLRKRHQSLQPSSERSLDASMSPLQPIAPSSLSFDMADGVKGQC
[1]
  in vitro kinase assay of Hunk immunoprecipitates with [gamma-32P]ATP: Hunk immunoprecipitates were able to phosphorylate both histone H1 and MBP in vitro
  in vitro kinase assay of anti-Hunk immunoprecipitates with gamma-32P-ATP and histone H1: Hunk-associated kinase activity was substantially greater in immunoprecipitates prepared from transgenic when compared with wild type mammary glands
[2]
  in vitro kinase assay of Hunk immunoprecipitates with [gamma-32P]ATP: Hunk immunoprecipitates were able to phosphorylate both histone H1 and MBP in vitro

Reference: patent publication US20140234321
